Target: T1, recombinant human IL-8, (ser-IL-8)72 (human, UniProt P10145 28-99)
T1 construct: mature; also called human wild type IL-8; wt IL-8
T1 sequence (looked up): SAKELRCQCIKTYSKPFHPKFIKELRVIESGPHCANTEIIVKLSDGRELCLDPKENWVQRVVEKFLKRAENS
Experiment: competition of 125I-IL-8 binding to human neutrophils

fold reduction in binding affinity (against the chimeric F(ab)): 5.5 fold
B1: humanized 6G425 F(ab)-1 (Fab, V domains shown)
VH: EVQLVESGGGLVQPGGSLRLSCAASGYSFSSHYMHWVRQAPGKGLEWVGYIDPSNGETTYNQKFKGRFTISRDNSKNTLYLQMNSLRAEDTAVYYCARGDYRYNGDWFFDVWGQGT
VL: DIQMTQSPSSLSASVGDRVTITCRSSQSLVHGIGNTYLHWYQQKPGKAPKLLIYKVSNRFSGVPSRFSGSGSGTDFTLTISSLQPEDFATYYCSQSTHVPLTFGQGTKVEIKR
notes: Fab with human kappa subgroup I light and human IgG1 subgroup III heavy chain (pEMX1); CDR swap; also called version 1; V1

From US6458355 (Genentech, dated 2002)
